From patent US20120316071A1 (published 2012)

How the values were obtained:
[1] = molecular target: T1, rHuman HGF R/c-MET/Fc Chimera (human, UniProt P08581 25-932); assay: ECL multispot (MSD) binding assay; antigen spotted on plate, Fab in solution;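 note: purified Fab bound for 1 h at 20 °C, detected with a TAG-labelled antibody, electrochemiluminescence compared with each well's blank, signal-to-blank ratio of at least 4 scored as hit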
T1 construct: also called HGF R/Fc

[2] = molecular target: T2, rHuman Notch-1/Fc Chimera (human, UniProt P46531 19-526); assay: as above
T2 construct: Bought from R&D Systems (Cat#3647-TK)

[3] = molecular target: rHuman CD44/Fc Chimera (human, UniProt P16070 21-220); assay: as above
[4] = molecular target: rHuman IGF-1 sR (insulin-like growth factor-1 soluble receptor) (human, UniProt P08069 31-932); assay: as above
[5] = molecular target: T3, rHuman P-Cadherin/Fc Chimera (human, UniProt P22223 108-654); assay: as above
T3 construct: Bought from R&D Systems (Cat#861-PC)

[6] = molecular target: T4, rHuman Erythropoietin R/Fc Chimera (human, UniProt P19235 25-250); assay: as above
T4 construct: also called EPO R; EPO R/Fc
T4 sequence (looked up): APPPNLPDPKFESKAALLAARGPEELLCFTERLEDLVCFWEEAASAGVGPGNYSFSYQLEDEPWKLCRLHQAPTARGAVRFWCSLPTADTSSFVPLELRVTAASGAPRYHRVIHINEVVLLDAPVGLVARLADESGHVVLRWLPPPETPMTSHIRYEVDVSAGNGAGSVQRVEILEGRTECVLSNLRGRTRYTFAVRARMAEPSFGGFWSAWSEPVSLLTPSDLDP

[7] = molecular target: rHuman ErbB2/Fc Chimera (human, UniProt P04626 23-652); assay: as above
[8] = molecular target: rHuman EGF R/Fc Chimera (human, UniProt P00533 25-645); assay: as above
[9] = molecular target: T5, Recombinant Human DLL4 (R&D Systems Cat#1506-D4/CF) (human, UniProt Q9NR61 27-524); assay: ECL (MSD) binding assay, Fab on immobilized recombinant human DLL4
T5 construct: also called rHuman DLL4; delta-like protein 4

[10] = molecular target: T5, Recombinant Human DLL4 (R&D Systems …); assay: ECL (MSD) multispot binding assay, Fab on immobilized recombinant human DLL4
[11] = molecular target: T6, Recombinant Human DLL4 (delta-like protein 4) (human, UniProt Q9NR61 27-524); assay: ELISA, DLL4 coated on plate; Fab at 100 (head prints µM, text says nM)
T6 construct: Bought recombinant protein (R&D Systems Cat#1506-D4/CF); also called rHuman DLL4; Delta-like 4

[12] = molecular target: T6, Recombinant Human DLL4 (delta-like …); assay: ELISA, DLL4 coated on plate; Fab at 0.05 (head prints µM, text says nM)
[13] = molecular target: T6, Recombinant Human DLL4 (delta-like …); assay: ELISA, DLL4 coated on plate; Fab at 0.14 (head prints µM, text says nM)
[14] = molecular target: T6, Recombinant Human DLL4 (delta-like …); assay: ELISA, DLL4 coated on plate; Fab at 0.41 (head prints µM, text says nM)
[15] = molecular target: T6, Recombinant Human DLL4 (delta-like …); assay: ELISA, DLL4 coated on plate; Fab at 1.23 (head prints µM, text says nM)
[16] = molecular target: T6, Recombinant Human DLL4 (delta-like …); assay: ELISA, DLL4 coated on plate; Fab at 3.70 (head prints µM, text says nM)
[17] = molecular target: T6, Recombinant Human DLL4 (delta-like …); assay: ELISA, DLL4 coated on plate; Fab at 11.11 (head prints µM, text says nM)
[18] = molecular target: T6, Recombinant Human DLL4 (delta-like …); assay: ELISA, DLL4 coated on plate; Fab at 33.33 (head prints µM, text says nM)

T1 sequence (P08581 25-932, change not shown): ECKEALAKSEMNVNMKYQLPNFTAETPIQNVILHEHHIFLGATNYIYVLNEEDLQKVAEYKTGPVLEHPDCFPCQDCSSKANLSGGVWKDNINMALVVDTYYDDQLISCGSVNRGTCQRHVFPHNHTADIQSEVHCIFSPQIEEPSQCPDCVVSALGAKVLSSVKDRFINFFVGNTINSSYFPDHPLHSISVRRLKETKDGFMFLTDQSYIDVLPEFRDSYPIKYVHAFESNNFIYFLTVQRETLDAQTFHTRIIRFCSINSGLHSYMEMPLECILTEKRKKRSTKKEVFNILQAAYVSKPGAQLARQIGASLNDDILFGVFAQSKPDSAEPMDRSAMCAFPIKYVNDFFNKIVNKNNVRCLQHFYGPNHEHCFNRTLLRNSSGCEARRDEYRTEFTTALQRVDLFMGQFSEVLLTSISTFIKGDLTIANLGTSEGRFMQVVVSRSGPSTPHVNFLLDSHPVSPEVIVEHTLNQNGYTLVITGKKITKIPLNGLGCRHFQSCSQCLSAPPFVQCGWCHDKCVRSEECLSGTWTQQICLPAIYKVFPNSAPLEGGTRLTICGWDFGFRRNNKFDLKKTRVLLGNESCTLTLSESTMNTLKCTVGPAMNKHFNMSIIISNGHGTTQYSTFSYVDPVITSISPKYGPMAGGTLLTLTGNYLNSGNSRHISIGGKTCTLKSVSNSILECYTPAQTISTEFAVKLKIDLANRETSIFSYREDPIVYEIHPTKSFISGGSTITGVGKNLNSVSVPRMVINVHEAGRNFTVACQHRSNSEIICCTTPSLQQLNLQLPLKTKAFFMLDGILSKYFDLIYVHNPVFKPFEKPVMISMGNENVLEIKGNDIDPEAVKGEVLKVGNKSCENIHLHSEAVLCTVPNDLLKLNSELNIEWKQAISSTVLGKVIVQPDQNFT

B1: Fab VH1-46_IGHD6-6*01_IGHJ1*01 S102A/S103P/S104F/H111F (APFF) & L6_IGKJ1*01 S92V (Fab, V domains shown)
VH: QVQLVQSGAEVKKPGASVKVSCKASGYTFTSYYMHWVRQAPGQGLEWMGIINPSGGSTSYAQKFQGRVTMTRDTSTSTVYMELSSLRSEDTAVYYCAREEYAPFSAEYFQFWGQGTLVTVSS
VL: EIVLTQSPATLSLSPGERATLSCRASQSVSSYLAWYQQKPGQAPRLLIYDASNRATGIPARFSGSGSGTDFTLTISSLEPEDFAVYYCQQRVNWPPWTFGQGTKVEIKR
notes: Tested as Fab (CH1 with His6/Flag tags from Plasmid A; kappa CL from Plasmid C); also called APFF / S92V
[1]
  ECL signal: 288
[2]
  ECL signal: 347
[3]
  ECL signal: 331
[4]
  ECL signal: 237
[5]
  ECL signal: 390
[6]
  ECL signal: 368
[7]
  ECL signal: 246
[8]
  ECL signal: 305

B2: Fab VH5-51_IGHD5-18*01>3_IGHJ4*01 G100K/G104T (KT) & V3-4_IGLJ1*01 (Fab, V domains shown)
VH: EVQLVQSGAEVKKPGESLKISCKGSGYSFTSYWIGWVRQMPGKGLEWMGIIYPGDSDTRYSPSFQGQVTISADKSISTAYLQWSSLKASDTAMYYCARRKYSYTYDYFDYWGQGTLVTVSS
VL: QTVVTQEPSFSVSPGGTVTLTCGLSSGSVSTSYYPSWYQQTPGQAPRTLIYSTNTRSSGVPDRFSGSILGNKAALTITGAQADDESDYYCVLYMGSGISYVFGTGTKVTVL
notes: Tested as Fab; Fabs were expressed in E. coli from plasmid A (heavy chain CH1, His6 and Flag tags) and plasmid E (lambda CL); also called H:KT & L:wt
[9]
  ECL signal: 588
[10]
  ECL Signal/Blank: 49.2

B3: Fab VH5-51_IGHD5-18*01>3_IGHJ4*01 G100K/G104T G24T/S28R/G35V (H:KT TRV) & V3-4_IGLJ1*01 V91L/S96P (L:LP) (Fab, V domains shown)
VH: EVQLVQSGAEVKKPGESLKISCKTSGYRFTSYWIVWVRQMPGKGLEWMGIIYPGDSDTRYSPSFQGQVTISADKSISTAYLQWSSLKASDTAMYYCARRKYSYTYDYFDYWGQGTLVTVSS
VL: QTVVTQEPSFSVSPGGTVTLTCGLSSGSVSTSYYPSWYQQTPGQAPRTLIYSTNTRSSGVPDRFSGSILGNKAALTITGAQADDESDYYCLLYMGPGISYVFGTGTKVTVL
notes: Tested as a Fab made in E. coli; also called H:KT TRV & L:LP
[11]
  ELISA signal: 0.34
[12]
  ELISA signal: 0.02
[13]
  ELISA signal: 0.03
[14]
  ELISA signal: 0.02
[15]
  ELISA signal: 0.03
[16]
  ELISA signal: 0.03
[17]
  ELISA signal: 0.07
[18]
  ELISA signal: 0.19

B4: Fab VH5-51_IGHD5-18*01>3_IGHJ4*01 G100K/G104T S56A & V3-4_IGLJ1*01 (Fab, V domains shown)
VH: EVQLVQSGAEVKKPGESLKISCKGSGYSFTSYWIGWVRQMPGKGLEWMGIIYPGDADTRYSPSFQGQVTISADKSISTAYLQWSSLKASDTAMYYCARRKYSYTYDYFDYWGQGTLVTVSS
VL: QTVVTQEPSFSVSPGGTVTLTCGLSSGSVSTSYYPSWYQQTPGQAPRTLIYSTNTRSSGVPDRFSGSILGNKAALTITGAQADDESDYYCVLYMGSGISYVFGTGTKVTVL
notes: Tested as Fab; CH1 with His6/Flag tags (plasmid A) and lambda CL (plasmid E) come from the expression vectors
[10]
  ECL Signal/Blank: 55

B5: Fab VH5-51_IGHD5-18*01>3_IGHJ4*01 G100K/G104T G54A & V3-4_IGLJ1*01 (Fab, V domains shown)
VH: EVQLVQSGAEVKKPGESLKISCKGSGYSFTSYWIGWVRQMPGKGLEWMGIIYPADSDTRYSPSFQGQVTISADKSISTAYLQWSSLKASDTAMYYCARRKYSYTYDYFDYWGQGTLVTVSS
VL: QTVVTQEPSFSVSPGGTVTLTCGLSSGSVSTSYYPSWYQQTPGQAPRTLIYSTNTRSSGVPDRFSGSILGNKAALTITGAQADDESDYYCVLYMGSGISYVFGTGTKVTVL
notes: as for B4
[10]
  ECL Signal/Blank: 4.1

B6: Fab VH5-51_IGHD5-18*01>3_IGHJ4*01 G100K/G104T T58A & V3-4_IGLJ1*01 (Fab, V domains shown)
VH: EVQLVQSGAEVKKPGESLKISCKGSGYSFTSYWIGWVRQMPGKGLEWMGIIYPGDSDARYSPSFQGQVTISADKSISTAYLQWSSLKASDTAMYYCARRKYSYTYDYFDYWGQGTLVTVSS
VL: QTVVTQEPSFSVSPGGTVTLTCGLSSGSVSTSYYPSWYQQTPGQAPRTLIYSTNTRSSGVPDRFSGSILGNKAALTITGAQADDESDYYCVLYMGSGISYVFGTGTKVTVL
notes: as for B4
[10]
  ECL Signal/Blank: 102
